The source of these data is patent US20230330254A1 (Regeneron, published 2023).

Read-outs that look alike come from different tables or passages of the source.

Experiment [1] has as its target T1, full-length cynomolgus GLP1R on HEK293/CRE-Luc/mfGLP1R cells (cynomolgus, UniProt F8V479 24-463).
T1 construct: whole, on cells
The experiment in a line: flow cytometry, mfGLP1R cells. (In general: In flow cytometry, cells or beads pass a laser one at a time.)

The target of experiment [2] is T2, N-terminal ectodomain of human GLP1R expressed with a myc-myc hexahistidine tag (human, UniProt P43220 24-145, limits assumed).
T2 construct: extracellular domain; also called hGLP1R-MMH; hGLP1R.mmh
T2 sequence (P43220 24-145 limits assumed): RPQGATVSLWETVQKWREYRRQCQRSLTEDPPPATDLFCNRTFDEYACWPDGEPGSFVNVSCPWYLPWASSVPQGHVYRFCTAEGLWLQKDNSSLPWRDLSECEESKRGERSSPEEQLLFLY
The experiment can be described thus: SPR, captured via anti-hFc, 25 C. A general note: In SPR one partner is held on a chip, and binding of the other changes the refractive index at the surface.

Experiment [3] deals with T3, full-length human GLP1R on HEK293/CRE-Luc/hGLP1R cells (human, UniProt P43220 24-463).
T3 construct: whole, on cells
The experiment can be described thus: flow cytometry, hGLP1R cells.

Experiment [4] concerns the target T2, N-terminal ectodomain of human GLP1R …. The experiment can be described thus: SPR, captured via anti-hFc, 25 C. This is another data set of the same source.
Experiment [5] has as its target T3, full-length human GLP1R on …. The experiment in a line: cell-based or functional assay.

B1: H1M30345N (antibody, V domains shown)
VH: EVQLVESGGGLVKPGGSLRLSCAASGFIFSRYSMNWVRQAPGKGLEWVSSMSSNSKNTYYADSVKGRFTISRDNAKNSLFLQMNTLRAEDTAVYYCARDGYTLRAFDIWGQGTMVTVSS
VL: EIVLTQSPGTLSLSPGERDTLSCRASQSIAGRYVAWYQQKPGQAPRLLIYGASSRATGIPDRFSGSGSGTDFTLTISRLEPEDFAVYYCQQYGSSPWTFGQGTKVEIK
Turning to B1, the EC50 (in general, the concentration needed to bring the measured effect to its halfway point) in experiment [1] amounted to 3.54 nM. In experiment [2], the “90 nM hGLP1R.mmh Bound (RU)” value came to 61.7 RU, the Kd (commonly the equilibrium constant for the complex coming apart) was 0.16 nM and the t1/2 was 102 min. This molecule also came in with an EC50 in experiment [3] of 1.64 nM.

B2: REGN9278-M3190 (antibody, human IgG4 S228P, kappa, V domains shown)
VH: QVQLQQWGAGLLKPSETLSLTCAVYGGSFSGYYWSWIRQPPGKGLEWIGEINHAGSTNYNPSLKSRITISVDTSKNQFSLKLSSVTAADTAVYYCARGWYYGSGSYHRNWFDPWGQGTLVTVSS
VL: EIVLTQSPGTLSLSPGERATLSCRASQSVYYSYLAWYQQKPGQAPRLLIYGASNRATGIPDRFSGSGSGTDFTLTISRLEPEDFAVYYCQQYGNSPWTFGQGTKVEIKR
modifications: linker-payload M3190 (LP11) on Gln 3 of the N-terminal Q-tag LLQGSG
notes: antibody-tethered drug conjugate; also called REGN9278 ATDC
B2: in experiment [4], the “90 nM hGLP1R.mmh Bound (RU)” value turned out to be 55.7 RU; binding was characterised by a dissociation constant (Kd) of 1.1 nM; the off-rate constant (koff) (commonly a measure of how fast the partners let go of each other) was found to be 0.000127 s⁻¹; the kon (as a rule, a measure of how fast the partners come together) turned out to be 116000 M⁻¹ s⁻¹. In addition, in experiment [4], the t1/2 came to 91 min. In experiment [5], the “CRE-luc EC50” value stood at 0.376 nM, the “CRE-luc Relative Potency (% M2361 EC50)” value came out at 4.3%, the “CRE-luc Relative Signal:Noise (% M2361)” value came out at 115% and the “CRE-luc S/N” value is 73.8 fold.

B3: REGN9278 (antibody, human IgG4 S228P, kappa, V domains shown)
VH: QVQLQQWGAGLLKPSETLSLTCAVYGGSFSGYYWSWIRQPPGKGLEWIGEINHAGSTNYNPSLKSRITISVDTSKNQFSLKLSSVTAADTAVYYCARGWYYGSGSYHRNWFDPWGQGTLVTVSS
VL: EIVLTQSPGTLSLSPGERATLSCRASQSVYYSYLAWYQQKPGQAPRLLIYGASNRATGIPDRFSGSGSGTDFTLTISRLEPEDFAVYYCQQYGNSPWTFGQGTKVEIKR
notes: IgG4; Q-tag on light chain N-terminus; also called mAb 19; REGN9278 unconjugated Ab
For the molecule B3, the results for the 50% effective concentration (EC50) in experiment [1] and in experiment [3] were 2.49 nM and 4.21 nM, respectively. For the same molecule, the “Flow S/N” value in experiment [1] amounted to 548 fold; in experiment [3], 436 fold.

B4: REGN9267 (antibody, human IgG4 S228P, kappa)
heavy: not shown
light: EIVLTQSPGTLSLSPGERDTLSCRASQSIAGRYVAWYQQKPGQAPRLLIYGASSRATGIPDRFSGSGSGTDFTLTISRLEPEDFAVYYCQQYGSSPWTFGQGTKVEIKRTVAAPSVFIFPPSDEQLKSGTASVVCLLNNFYPREAKVQWKVDNALQSGNSQESVTEQDSKDSTYSLSSTLTLSKADYEKHKVYACEVTHQGLSSPVTKSFNRGEC
notes: IgG4; Q-tag on heavy chain N-terminus; also called mAb 5; REGN9267 unconjugated Ab
As to B4, the half-maximal effective concentration (EC50) in experiment [1] came out at 0.668 nM; in experiment [3], 0.944 nM.

B5: H4H30452P (antibody, V domains shown)
VH: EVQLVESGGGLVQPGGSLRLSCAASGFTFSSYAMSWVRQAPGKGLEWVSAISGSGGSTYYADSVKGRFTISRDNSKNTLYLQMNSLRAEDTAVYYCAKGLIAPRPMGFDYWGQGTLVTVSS
VL: DIQMTQSPSSVSASVGDRVTITCRASQGINSWLAWYQQKPGKAPKLLIYAASSLQSGVPSRFSGSGSGTDFTLTISSLQPEDFATYYCHQADSFPYTFGQGTKLEIK
notes: parental antibody without Q-tag; also called parent of REGN7990
B5: in experiment [2], the “90 nM hGLP1R.mmh Bound (RU)” value is 88.9 RU, the Kd was determined as 5.4 nM, the off-rate constant (koff) worked out at 0.00118 s⁻¹ and the kon worked out at 218000 M⁻¹ s⁻¹. For the same molecule, in experiment [2], the t1/2 was 9.8 min. For the same molecule, in experiment [3], a half-maximal effect (EC50) was put at 1.68 nM and the “Flow S/N” value came to 115 fold.

B6: REGN8052 (antibody, V domains shown)
VH: QVQLVESGGGVVQPARSLRLSCAASGFAFSRSAMHWVRQAPGKGLEWVAVISYDGSNKYYTDSVKGRFTISRDNSKNTLYLQMNTLRAEDTALYYCAKMYTTMDSFDYWGQGTLVTVSS
VL: DIQLTQSPSFLSASVGDRVTITCWASQGISSYLAWYQQKPGKAPKLLIYAASTLQSGVPSRFSGSGSGTEFTLTISSLQPEDFALYYCQQLNSYPRTFGQGTKVEIK
notes: parental antibody without Q-tag; also called parent of REGN8072
As to B6, the EC50 in experiment [1] worked out at 2.13 nM. In experiment [2], the “90 nM hGLP1R.mmh Bound (RU)” value amounted to 98.7 RU, the Kd turned out to be 5.49 nM and the t1/2 stood at 9.6 min. The molecule further yielded an EC50 in experiment [3] of 0.705 nM.

B7: REGN8072 (antibody, human IgG4 S228P, kappa, V domains shown)
VH: QVQLVESGGGVVQPARSLRLSCAASGFAFSRSAMHWVRQAPGKGLEWVAVISYDGSNKYYTDSVKGRFTISRDNSKNTLYLQMNTLRAEDTALYYCAKMYTTMDSFDYWGQGTLVTVSS
VL: DIQLTQSPSFLSASVGDRVTITCWASQGISSYLAWYQQKPGKAPKLLIYAASTLQSGVPSRFSGSGSGTEFTLTISSLQPEDFALYYCQQLNSYPRTFGQGTKVEIKR
notes: IgG4; Q-tag on light chain N-terminus; also called mAb 4; REGN8072 unconjugated Ab
As to B7, the response in experiment [3] was half-maximal at 1.42 nM (EC50).

B8: REGN7988-M3190 (antibody, human IgG4 S228P, kappa, V domains shown)
VH: QVQLVESGGGVVQPGRSLRLSCAASGFTFSGYGIHWVRQAPGKGLVWVAVIWYDGSFKYYADSVKGRFTISRDNSKNTLYLQMNSLRAEDTAVYYCARGDSSSSGRYYYYGMDVWGQGTTVTVSS
VL: DIQMTQSPSSLSASVGDRVTITCRASQGIRNDLGWYQQKPGTAPKRLIFAASSLQSGVPSRFSGSGSGTEFTLTISSLQPEDFATYYCLQHNNYPPTFGGGTKVEIKR
modifications: linker-payload M3190 (LP11) on Gln 3 of the N-terminal Q-tag LLQGSG
On to B8, for which, in experiment [5], the “CRE-luc EC50” value came out at 0.107 nM, the “CRE-luc Relative Potency (% M2361 EC50)” value stood at 15.1%, the “CRE-luc Relative Signal:Noise (% M2361)” value was found to be 140% and the “CRE-luc S/N” value amounted to 90.1 fold.

B9: REGN8051 (antibody, V domains shown)
VH: QVQLVESGGGVGQPGRSLRLSCAASGFTFSRNAMHWVRQAPGKGLEWVAVISYDGSNKHYADSVKGRFTISRDNSKNTLYLEMNSLRVEDTAVYYCAKGGIPFDYWGQGTLVTVSS
VL: DIVMTQSPLSSPVTLGQPASISCRSSQSLVHFDGNTYLSWLHQRPGQPPRLLIYKISNRFSGVPDRFSGSGAGTDFTLKISRVEPEDVGVYYCMHATQFPYTFGQGTKLEIK
notes: parental antibody without Q-tag; also called parent of REGN8070
Turning to B9, in experiment [1], the response was half-maximal at 4.12 nM (EC50) and the “Flow S/N” value is 494 fold. In experiment [2], the “90 nM hGLP1R.mmh Bound (RU)” value came out at 73.7 RU; the affinity, expressed as Kd, was 3.41 nM; the koff turned out to be 0.000211 s⁻¹; the association rate constant (kon) amounted to 61900 M⁻¹ s⁻¹. For the same molecule, in experiment [2], the t1/2 stood at 54.7 min. Moreover, in experiment [3], a half-maximal response (EC50) required 7.39 nM and the “Flow S/N” value is 560 fold.

B10: REGN8070 (antibody, human IgG4 S228P, kappa, V domains shown)
VH: QVQLVESGGGVGQPGRSLRLSCAASGFTFSRNAMHWVRQAPGKGLEWVAVISYDGSNKHYADSVKGRFTISRDNSKNTLYLEMNSLRVEDTAVYYCAKGGIPFDYWGQGTLVTVSS
VL: DIVMTQSPLSSPVTLGQPASISCRSSQSLVHFDGNTYLSWLHQRPGQPPRLLIYKISNRFSGVPDRFSGSGAGTDFTLKISRVEPEDVGVYYCMHATQFPYTFGQGTKLEIKR
notes: IgG4; Q-tag on light chain N-terminus; also called mAb 16; REGN8070 unconjugated Ab
B10: the EC50 in experiment [1] amounted to 2.05 nM; in experiment [3], 3.44 nM. In addition, the “Flow S/N” value was found to be 246 fold in experiment [1] and 322 fold in experiment [3].

B11: H4H30484P2 (antibody, V domains shown)
VH: EVQLVESGGGLVQPGGSLKLSCAASGFTFSGSAMHWVRQASGKGLEWVGRITSKANSYATAYDASVKGRFTISRDDSKNTAYLQMNSLKTEDTAVYYCTRQRFLEFLFLDYWGQGTLVTVSS
VL: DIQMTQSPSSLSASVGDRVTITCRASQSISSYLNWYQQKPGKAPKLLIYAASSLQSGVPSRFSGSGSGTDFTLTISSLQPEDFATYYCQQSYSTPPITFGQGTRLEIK
notes: parental antibody without Q-tag; also called parent of REGN5619
In the case of B11, in experiment [1], the concentration giving a half-maximal response (EC50) is 0.963 nM and the “Flow S/N” value is 284 fold. Besides, in experiment [2], the “90 nM hGLP1R.mmh Bound (RU)” value came to 26 RU, the Kd worked out at 181 nM, the koff turned out to be 0.039 s⁻¹ and the kon is 215000 M⁻¹ s⁻¹. The molecule further gave a t1/2 in experiment [2] of 0.3 min. In addition, in experiment [3], a half-maximal response (EC50) required 1.98 nM and the “Flow S/N” value was found to be 208 fold.
